Laboratory results from patent US20250066499A1 (SUNSHINE GUOJIAN PHARMACEUTICAL SHANGHAI, published 2025).

T1: CD73 protein on the surface of tumor cells (human, UniProt P21589 27-549)
T1 sequence (looked up): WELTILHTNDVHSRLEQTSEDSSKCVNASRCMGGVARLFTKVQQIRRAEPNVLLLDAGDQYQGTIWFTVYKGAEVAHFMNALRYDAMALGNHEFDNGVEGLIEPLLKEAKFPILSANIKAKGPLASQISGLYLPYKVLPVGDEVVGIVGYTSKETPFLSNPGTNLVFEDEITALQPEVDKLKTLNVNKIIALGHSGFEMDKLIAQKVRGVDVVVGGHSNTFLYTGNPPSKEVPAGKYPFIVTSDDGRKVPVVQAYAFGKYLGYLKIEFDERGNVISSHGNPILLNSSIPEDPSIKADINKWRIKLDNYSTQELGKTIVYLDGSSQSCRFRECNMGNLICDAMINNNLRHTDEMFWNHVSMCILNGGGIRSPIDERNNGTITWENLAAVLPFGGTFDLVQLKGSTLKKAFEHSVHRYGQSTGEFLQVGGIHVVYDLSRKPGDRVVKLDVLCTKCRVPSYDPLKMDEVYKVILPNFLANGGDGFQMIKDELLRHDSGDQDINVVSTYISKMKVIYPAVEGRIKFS

T2: human CD73-His protein (human, UniProt P21589 27-549)
T2 construct: Expressed in HEK-293F with a signal peptide that is not specified; In the ELISAs it was biotinylated with EZ-Link NHS-Biotin (CD73-biotin) and captured on streptavidin; in SPR and the enzyme assay it was used as CD73-His; also called CD73-his antigen; CD73-biotin
T2 sequence: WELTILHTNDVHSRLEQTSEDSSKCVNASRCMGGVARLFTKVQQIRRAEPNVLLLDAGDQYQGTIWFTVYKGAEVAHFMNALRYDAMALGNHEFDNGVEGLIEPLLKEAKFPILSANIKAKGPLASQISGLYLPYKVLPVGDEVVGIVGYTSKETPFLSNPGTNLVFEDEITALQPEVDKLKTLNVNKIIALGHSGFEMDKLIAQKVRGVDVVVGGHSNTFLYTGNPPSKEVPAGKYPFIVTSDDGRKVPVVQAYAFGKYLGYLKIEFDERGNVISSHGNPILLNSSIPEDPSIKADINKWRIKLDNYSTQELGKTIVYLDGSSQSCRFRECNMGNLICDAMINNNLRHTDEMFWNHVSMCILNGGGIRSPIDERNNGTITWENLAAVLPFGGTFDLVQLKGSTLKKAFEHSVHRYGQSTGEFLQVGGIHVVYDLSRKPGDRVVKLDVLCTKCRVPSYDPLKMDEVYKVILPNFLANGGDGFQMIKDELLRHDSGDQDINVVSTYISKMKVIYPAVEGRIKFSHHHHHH


Legend:
[1] = target: T1, CD73 protein on the surface of tumor …; test: cell-based or functional assay
[2] = target: T1, CD73 protein on the surface of tumor …; test: flow cytometry on A375 cells
Protocol: (§1) MDA-MB-231 cells (triple-negative breast cancer), H292 cells (human lung cancer cells), and A375 cells (human malignant melanoma cells), all in their logarithmic growth phase, were collected respectively. The cells were washed once with RPMI-1640 basic medium and then adjusted to a cell concentration of 2.0×10⁶ cells/mL in RPMI-1640 basic medium containing 1% BSA (antibody diluent). The antibodies to be tested were diluted in a 3-fold gradient using the antibody diluent, and 100 μL of each concentration of the test antibodies was mixed with 100 μL of cells in a 96-well cell culture plate and incubated at 4° C. for 1 hour (the maximum working concentration of the test antibodies was 500 nM, with 1×10⁵ target cells per well). The cells were washed twice with PBS to remove unbound test antibodies. Then, the cells were mixed with 200 μL of 5 μg/mL FITC-labeled goat anti-human IgG-Fc secondary antibody and incubated at 4° C. for 30 minutes. The cells were washed twice again with PBS to remove unbound secondary antibodies, and finally, the cells were resuspended in 200 μL of PBS. The binding affinity of the test antibodies to the cells was determined using a flow cytometer.

[3] = target: T1, CD73 protein on the surface of tumor …; test: flow cytometry on H292 cells
Protocol: as §1

human CD73-His protein = target: T2, human CD73-His protein; test: ELISA, biotinylated CD73-His on streptavidin plate
Protocol: The ELISA plates were coated with SA protein diluted to 1.5 μg/mL in coating buffer (50 mM carbonate coating buffer, pH 9.6) and incubated overnight at 4° C. The supernatant was discarded, and the plates were washed three times with PBST. Then, 5% skimmed milk powder prepared with PBS was added for blocking and the plates were incubated for 2 h at 37° C. After washing the plates once with PBST, CD73-biotin protein (prepared by biotinylating CD73-His protein according to the EZ-Link NHS-Biotin Reagent instructions) was diluted to 0.5 μg/mL and added at 100 μL/well for incubation at room temperature for 1 h. The plates were washed three times with PBST, and the prepared murine-derived monoclonal antibodies against human CD73 were serially diluted with 1% BSA buffer prepared with PBST and added to the ELISA plates at 100 μl/well. The plates were incubated at 37° C. for 1 h. After washing the plates three times with PBST, HRP-labeled goat anti-mouse IgG secondary antibody was added and the plates were incubated for 30 min at 37° C. After washing the plates three times with PBST, the residual droplets were patted dry on absorbent paper as much as possible. Then, 100 μl of TMB color developing solution was added to each well, and the plates were incubated in the dark at room temperature for 5 min for color development. Subsequently, 50 μl of 2M H₂SO₄ stop solution was added to each well to terminate the substrate reaction. The OD values were read at 450 nm using a multimode microplate reader to analyze the binding ability of the tested antibodies to the target antigen human CD73-His.
The binding affinity of various humanized antibodies to human CD73-his protein was measured with reference to Example 3.

| Binder | IC50, inhibition of CD73 enzyme activity on A375 cells [1] [nM] | IC50, inhibition of CD73 enzyme activity on H292 cells [1] [nM] | IC50, inhibition of CD73 enzyme activity on MDA-MB-231 cells [1] [nM] | EC50 [2] [nM] | EC50 [3] [nM] | EC50 (human CD73-His protein) [nM] |
| --- | --- | --- | --- | --- | --- | --- |
| 56B10-HuV31 (antibody, human IgG4, V domains shown, Humanized) VH: QVQLQQSGAEVKKPGASVKVSCKASGYTFTRYYIYWVRQRPGQGLEWIGWIYPGNFNTKYNEKFKGRATLTADTSASTAYMELSSLTSEDTAVYYCARDVYDYAGFAYWGQGTLVTVSS VL: DIQLTQSPSFLSASVGDRVTITCKASQGVATAVAWYQQKPGQSPKLLIYWASTRHTGVPDRFSGSGSGTEFTLTISSLQPEDFATYYCQQYSSYPWTFGQGTKVEIK | 1.34 | 0.818 | 0.61 | 1.27 | 2.55 | 0.079 |
| 48A11-HuV33 (antibody, human IgG4, V domains shown, Humanized) VH: QVQLVQSGAEVKKPGASVKVSCKASGYTFTSYWMHWVRQAPGQGLEWIGEINPSIGRTNYNEKFKSRVTLTRDTSTSTAYMELSSLRSEDTAVYYCARRVYGTMDYWGQGTLVTVSS VL: DIQMTQSPSSLSASVGDRVTITCKASQDINSYLSWFQQKPGKSPKLLIYRANIWVDGVPSRFSGSGSGQDYTFTISSLQPEDIATYYCLQYDELYTFGQGTKVEIK | 1.48 | 0.859 | 0.566 | 0.789 | 2.31 | 0.069 |
